# Results from patent publication US20210268016A1.
# Molecular target: recombinant full-length human PrP^C (AA23-231) (human) (UniProt P04156)
substance,measurement,value
Poly-d-glutamic acid sodium salt (peptide),IC50,> 1 µM
